Reference: patent US6570069B1, “Nucleic acids encoding plant inhibitors of apoptosis and transgenic cells and plants expressing them” (priority 2000, dated 2003)

Experiments:
[1] = system: caspase-9-induced caspase activation and apoptosis in 293T cells; test: Caspase-9 overexpression in 293T cells: caspase activity and apoptosis; type: cell-based, human; conditions: 24-36 hours after transfection
Experimental: (§1) HEK293 and 293T cells were maintained in DMEM (Irvine Scientific) supplemented with 10% fetal bovine serum, 1 mM L-glutamine and antibiotics. 293 cells (10^6) were co-transfected using Superfect with 0.1 μg Green Fluoresence Protein (GFP) marker plasmid pEGFP (Clontech), 0.25 ug of either pcDNA3-Bax or pcDNA3-Fas, and 1.5 μg of either pcDNA3myc-SfIAP or pcDNA3myc-CpIAP. Alternatively, cells were co-transfected with 0.35 μg pcDNA3-caspase-9-Flag and 2.1 μg of either SfIAP or CpIAP. […] In some cases, lysates were prepared from transfected cells, normalized for total protein content, and analyzed by SDS-PAGE/immunoblotting as described (Deveraux, Q., et al., (1997) supra; Deveraux, Q. L., et al. (1998) supra; Roy, N. et al. (1997) supra; Takahashi, R., et al., (1998), supra.).
To test this hypothesis, 293T cells were transfected with plasmids encoding pro-caspase-9 alone or in combination with SfIAP and CpIAP. Caspase activity and apoptosis were then assayed 24-36 hours later.

[2] = system: Fas-induced apoptosis in HEK293 cells; test: Fas-induced apoptosis in HEK293 cells (co-transfection, DAPI nuclear morphology); type: cell-based, human; conditions: IAP plasmid co-transfected with Fas into HEK293 cells; % apoptosis 24-36 hours later
Experimental: as §1
Baculoviral IAPs have been reported to protect mammalian cells from some apoptotic stimuli (Hawkins, C. J. et al., (1996) Proc. Natl. Acad. Sci. USA 93, 13786-13790; Hawkins, C. et al., (1998) Cell Death and Differentiation 5, 569-576; Uren, A. G. et al., (1996) Proc. Natl. Acad. Sci. USA 93, 4974-4978). Tests were performed to determine whether SfIAP is also capable of functioning as an apoptosis suppressor in a mammalian cell context. […]
Plasmids encoding various IAPs were co-transfected with Bax or Fas into 293 cells and % apoptosis was determined 24-36 hours later.

[3] = biological target: T1, caspase-7 (Homo sapiens, UniProt P55210); test: Binding to recombinant purified caspase-7; parameters: species or system mammalian
T1 construct: His6 (C); made in house
T1 sequence (P55210 24-198 limits assumed): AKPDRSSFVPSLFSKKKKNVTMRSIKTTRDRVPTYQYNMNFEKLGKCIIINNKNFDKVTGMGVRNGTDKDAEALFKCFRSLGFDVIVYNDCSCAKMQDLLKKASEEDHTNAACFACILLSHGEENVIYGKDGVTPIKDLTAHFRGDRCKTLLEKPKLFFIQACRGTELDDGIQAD
T1 sequence (P55210 207-303 limits assumed): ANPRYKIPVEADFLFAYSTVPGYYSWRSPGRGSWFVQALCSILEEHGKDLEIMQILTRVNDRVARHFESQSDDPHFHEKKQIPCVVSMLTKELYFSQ
Experimental: pGEX4T-1-SfIAP and pGEX4T-1 -CpIAP plasmids were introduced into E. coli strain BL21 (DE3) containing the plasmid pT-Trx. GST fusion proteins were obtained by induction with 0.05 mM IPTG at 25° C. for 8 hours, then purified using glutathione-Sepharose, essentially as described (Deveraux, Q., Welsh, K. & Reed, J. Methods of Enzymology in press). Caspases-3, and -7, containing C-terminal His6-tags, and caspase-8 containing an N-terminal His6-tag were purified as described previously (Stennicke, H. R. & Salvesen, G. S. (I1997) J. Biol. Chem. 272, 25719-25723; Stennicke, H., et al., (1998) J. Biol. Chem. 273, 27084-27090; Stennicke, H., et al., (1999) J. Biol. Chem. 274, 8359-8362). Caspase-9 lacking the CARD domain (ΔCARD-caspase-9) was constructed by truncating the cDNA and introducing a start codon substituting Val139. The resulting cDNA was subcloned into pET-23b and expressed in BL21 (DE3), yielding fully processed enzyme when cells were induced using 0.2 mM IPTG at OD600=0.6 for 4 hrs (Stennicke, H., Deveraux, Q., Humike, E., Reed, J., Dixit, V. & Salvesen, G. (1999) J. Biol. Chem. 274, 8359-8362). […] Concentrations of purified enzymes were determined from absorbance at 280 nm based on the molar absorption coefficients: caspase-3 (A280=26,000M−1 cm−1), caspase-7 (A280=24,500 M−1 cm−1), caspase-9 (A280=30,010M−1 cm−1). […]

B1: SfIAP: cellular IAP cloned from Spodoptera frugiperda, protein of 377 amino acids (SEQ ID NO:3); GST-fusion when recombinant (protein, listed as Spodoptera frugiperda)
chain: MWSCSLPCWNTKKSGLQMDITKVASNGSSSTLTLFKSGSLEAKIRPLAPLMLPTPSYDSNAGSPSLSPSTPCSSSSFSIDKTDNHDTFGFSADTVDMRKEDERMKTFEKWPVSFLSGEQLARNGFYYLGRRDEARCAFCKVEIMRWVEGDDPAKDHQRWAPQCPFVRKLNGTAAADTGSSGQDECGARAAPSGTSPPRMAGPVHPRYASEAARLRSFKDWPRCMRQKPEELAEAGFFYTGQGDKTKCFYCDGGLKDWENHDVPWEQHARWFDRCAYVQLVKGREYVQKVISEACEVSASEAERDVAPARTAEPSPPAEAPENSVDDSKLCKICYAEERNVCFVPCGHVVACAKCALAADKCPMCRRTFQNAVRLYFS
modifications: GST fusion when recombinant; fall armyworm inhibitor of apoptosis protein (SfIAP)
With B1 the “inhibition of caspase-9-induced apoptosis” value [1] was “inhibited caspase-9-induced apoptosis”, the “suppression of activation of downstream DEVD-cleaving caspases induced by overexpression of caspase-9” value [1] was “markedly suppressed activation of downstream DEVD-cleaving caspases” and the “suppression of Fas-induced apoptosis” value [2] was “ineffective at suppressing Fas-induced apoptosis”. For the same molecule, the “binding to caspase-7” value [3] was “neither bound”.

B2: CpIAP: baculoviral (CpGV) inhibitor of apoptosis protein; complete ORF expressed myc-tagged or as GST-fusion (protein)
chain: MSDLRLEEVRLNTFEKWPVSFLSPETMAKNGFYYLGRSDEVRCAFCKVEIMRWKEGEDPAADHKKWAPQCPFVKGIDVCGSIVTTNNIQNTTTHDTIIGPAHPKYAHEAARVKSFHNWPRCMKQRPEQMADAGFFYTGYGDNTKCFYCDGGLKDWEPEDVPWEQHVRWFDRCAYVQLVKGRDYVQKVITEACVLPGENTTVSTAAPVSEPIPETKIEKEPQVEDSKLCKICYVEECIVCFVPCGHVVACAKCALSVDKCPMCRKIVTSVLKVYFS
modifications: left off: a dimerising Fc or GST
notes: complete ORF expressed myc-tagged or as GST-fusion
With B2 the “inhibition of caspase-9-induced apoptosis” value [1] was “inhibited caspase-9-induced apoptosis”, the “suppression of activation of downstream DEVD-cleaving caspases induced by overexpression of caspase-9” value [1] was “markedly suppressed activation of downstream DEVD-cleaving caspases” and the “suppression of Fas-induced apoptosis” value [2] was “ineffective at suppressing Fas-induced apoptosis”. The “binding to caspase-7” value [3] was “neither bound”.
